The source of these data is article PMC3642240, “Cloning, Expression and Characterization of 3-Hydroxyisobutyrate Dehydrogenase from Pseudomonas denitrificans ATCC 13867” (PLoS ONE, 2013).

What all share (assay): purified protein
Substrate in data set [1]: COC(=O)[C@@H](C)CO
The note with it: 2 mM NAD+, 100 mM Tris-HCl pH 9.0, 30 °C.

Substrate in data set [2]: NC(=O)c1ccc[n+]([C@@H]2O[C@H](COP(=O)(O)OP(=O)(O)OC[C@H]3O[C@@H](n4cnc5c(N)ncnc54)[C@H](O)[C@@H]3O)[C@@H](O)[C@H]2O)c1
The note with it: 3 mM 3-hydroxypropionate, NAD+ 0.025-4 mM, 100 mM Tris-HCl pH 9.0, 30 °C, varied: cofactor.

Substrate in data set [3]: O=C(O)CCO
The note with it: 2 mM NAD+, 100 mM Tris-HCl pH 9.0, 30 °C.

Substrate in data set [4]: C[C@@H](CO)C(=O)O
The note with it: 2 mM NAD+, 100 mM Tris-HCl pH 9.0, 30 °C.

Substrate in data set [5]: CC(N)(CO)C(=O)O
The note with it: 2 mM NAD+, 100 mM Tris-HCl pH 9.0, 30 °C.

B1: 3HIBDH-IV (Pseudomonas sp. ATCC 13867) (protein)
chain: MRIGFIGLGNMGGPMAANLLKAGFDLSVFDLSAKAVAAAVALGARALASPAEVARDDVEVIITMLPAAAHVKQVFLGEDGLLANVQPGVLLIDSSTIDPLNAREVSAAALAHGNPMLDAPVSGGTAGAAAGTLTFMVGGEPADFERARPALAAMGKNIVHCGGTGNGQVAKVANNLLLGISMIGVAEAMSLGVKLGMDADVLAGIINTSSGRCWSSEVNNPLTGAPAARGYSGGFGTDLMLKDLGLASEAARQVRQPVLLGALAQQLFQTFSNQGNGQLDFSAIVKLYEQG
Take B1: the Km in the data set “purified protein [1]” stood at 25142 ± 1667 µM; in the data set “purified protein [2]”, 164 ± 37 µM; in “purified protein [3]”, 1055 ± 35 µM; in “purified protein [4]”, 178 ± 10 µM; in “purified protein [5]” it was 24180 ± 3169 µM. The Vmax in the data set “purified protein [1]” worked out at 67 µmol/min/mg; in the data set “purified protein [2]” it was 12.6 µmol/min/mg; in the data set “purified protein [3]” it was 20.2 µmol/min/mg; in “purified protein [4]”, 151 µmol/min/mg; in “purified protein [5]”, 12.4 µmol/min/mg. The kcat in the data set “purified protein [1]” was determined as 35.8 ± 3.3 s⁻¹; in “purified protein [2]” it was 6.72 ± 0.126 s⁻¹; in the data set “purified protein [3]”, 10.8 ± 0.945 s⁻¹; in the data set “purified protein [4]”, 80.8 ± 1.1 s⁻¹; in “purified protein [5]”, 6.62 ± 0.475 s⁻¹. In addition, the kcat/Km in “purified protein [1]” was 1430 ± 231 M⁻¹ s⁻¹; in the data set “purified protein [2]”, 42400 ± 10900 M⁻¹ s⁻¹; in the data set “purified protein [3]”, 10200 ± 699 M⁻¹ s⁻¹; in the data set “purified protein [4]” it was 455000 ± 33000 M⁻¹ s⁻¹; in “purified protein [5]” it was 275 ± 16 M⁻¹ s⁻¹.
